Measurements reported in patent US20090042785A1.

Legend:
[1] = target: human CTLA-4-Fc (Chimerigen) (human) (UniProt P16410); experiment: FACS competition: inhibition of 2.5 nM hCTLA-4 Fc binding to Raji cells (B7.1, B7.2)
[2] = target: human CTLA-4-Fc (Chimerigen) (human) (UniProt P16410); experiment: competition FACS: HuCTLA4-Ig 5 ug/ml (as printed on the axis) pre-incubated with the antagonist, then staining of P815 cells transfected with human B7.2; blocked ligand B7.2
[3] = target: human CTLA-4 on the cell surface (transfected CHO and A431 cells; CD152-expressing cells of human tonsil) (human) (UniProt P16410); experiment: indirect immunoperoxidase staining of cryosections; spleen HT337, mononuclear cells, white pulp (membrane, frequent); 5 µg/mL [Fig.20 continued, no label on the sheet]
[4] = target: human CTLA-4 on the cell surface (transfected CHO and A431 cells; CD152-expressing cells of human tonsil) (human) (UniProt P16410); experiment: indirect immunoperoxidase staining of cryosections; tonsil HT664, mononuclear cells, follicular>>interfollicular (membrane); 5 µg/mL [Fig.20 continued, no label on the sheet]
[5] = target: human CTLA-4 on the cell surface (transfected CHO and A431 cells; CD152-expressing cells of human tonsil) (human) (UniProt P16410); experiment: indirect immunoperoxidase staining of cryosections; CD152-expressing cells in human tonsil (positive control tissue), source HT343; 5 µg/mL; scale ± to 4+ (4+ = intense)
[6] = target: human CTLA-4 on the cell surface (transfected CHO and A431 cells; CD152-expressing cells of human tonsil) (human) (UniProt P16410); experiment: indirect immunoperoxidase staining of cryosections; CD152-expressing cells in human tonsil (positive control tissue), source HT662; 5 µg/mL; scale ± to 4+ (4+ = intense)
[7] = target: human CTLA-4 on the cell surface (transfected CHO and A431 cells; CD152-expressing cells of human tonsil) (human) (UniProt P16410); experiment: indirect immunoperoxidase staining of cryosections; kidney HT268, mononuclear cells, interstitial, inflammatory (membrane, rare); 5 µg/mL [Fig.20 continued, no label on the sheet]
[8] = target: human CTLA-4-Fc (Chimerigen) (human) (UniProt P16410); experiment: competition FACS: 2.5 nM human CTLA-4 Fc pre-incubated with the antagonist, then staining of Raji cells; % inhibition of CTLA-4 Fc binding; blocked ligands B7.1 and B7.2
[9] = target: mouse CTLA-4 Fc (Chimerigen) (mouse) (UniProt P09793); experiment: FACS competition: inhibition of 2.5 nM mCTLA-4 Fc binding to Raji cells (B7.1, B7.2)

## anti-human CTLA-4 monoclonal antibody 14D3 (eBioscience)
[1]
  IC50: 1.9 nM
[2]
  IC50 (read off the curve): 50 nM

## anti-human CTLA-4 monoclonal antibody BNI3 (Becton Dickinson)
[1]
  IC50: 2.1 nM
[3]
  staining intensity grade: 4 +
[4]
  staining intensity grade: 4 +
[5]
  staining intensity grade: 4 +
[6]
  staining intensity grade: 4 +
[7]
  staining intensity grade: 4 +
[8]
  IC50 (read off the curve): 2 nM

## anti-mouse CTLA-4 monoclonal antibody 4F10 (hybridoma UC10-4F10-11, ATCC #HB-304)
[9]
  IC50: 4.1 nM
